Results published in patent publication US20210253725A1 (BIONTECH, published 2021).

Assays:
[1] = biological target: CD134 expressed on the cell surface of HT1080_OX40 cells (human) (UniProt P43489); experiment: cell-based or functional assay
[2] = biological target: CD134 expressed on the cell surface of HT1080_OX40 cells (human) (UniProt P43489); experiment: HT1080_OX40 cells, imaging
For Functional assay Cross-linked by F(ab′)2 fragment IL-8 in this document: test concentration or dose not given here.
For Functional assay IL-8 in this document: test concentration or dose not given here.

Sequence of CD134 expressed on the cell surface of HT1080_OX40 cells (human) (P43489 29-277): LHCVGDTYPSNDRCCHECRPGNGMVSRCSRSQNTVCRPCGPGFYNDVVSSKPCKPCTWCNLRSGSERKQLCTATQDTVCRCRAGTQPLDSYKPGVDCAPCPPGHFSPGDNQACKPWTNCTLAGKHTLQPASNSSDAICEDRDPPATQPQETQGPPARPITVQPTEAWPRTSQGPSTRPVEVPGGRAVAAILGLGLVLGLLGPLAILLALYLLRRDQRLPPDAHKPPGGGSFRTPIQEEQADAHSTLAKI

EC 50 (IL-8 release, cross-linked) [1]: 0.966 µg/mL
Functional assay Cross-linked by F(ab′)2 fragment IL-8 [1]: 2.39 abs. corr.
Functional assay IL-8 [1]: 0.032 abs. corr.
Cellular binding assay [RFU] [2]: 40 RFU
B1: P018.S.05.A.G03 (antibody, V domains shown)
VH: QEQLVESGGGLVQPEGSLTVTCTASGFSFSNSYWMCWVRQAPGKGLEWIACIYLGSAGTTHHATWAKGRFTISKTTSTTVTLQMTSLTAADTATYFCARAGHDYWGAYHTLWGPGTLVTVSS
VL: DVVMTQTPASVSEPVGGSVTIKCQASQNIDNTLAWYQQKAGQPPKLLIYHASTLASGVPSRFRGSGSGTDFTLTISDLESADAATYYCQCPYYGSTYVYSFGGGTEVVVK
